# Substitutions are numbered along the chain they refer to.
# B1: DVD1288 (bispecific antibody, human IgG1, kappa)
# heavy: not shown
# light: DTVVTQSPAFLSVTPGEKVTITCITSTDIDVDMNWYQQKPDQPPKLLISQGNTLRPGVPSRFSSSGSGTDFTFTISSLEAEDAATYYCLQSDNLPLTFGQGTKLEIKRTVAAPEIVLTQSPDFQSVTPKEKVTITCRASQNIGSELHWYQQKPDQSPKLLIKYASHSISGVPSRFSGSGSGTDFTLTINGLEAEDAATYYCHQSDTLPHTFGQGTKVDIKRTVAAPSVFIFPPSDEQLKSGTASVVCLLNNFYPREAKVQWKVDNALQSGNSQESVTEQDSKDSTYSLSSTLTLSKADYEKHKVYACEVTHQGLSSPVTKSFNRGEC
# notes: DVD-Ig, outer AB271, inner AB275, linker set 1; V1 wt hIgG1, V2 kappa; also called DVD1288H; DVD1288L
# B2: DVD1290 (bispecific antibody, human IgG1, kappa)
# heavy: not shown
# light: ETTVTQSPSSLSASVGDRVTITCITSTDIDVDMNWYQQKPGKPPKLLISQGNTLRPGVPSRFSSSGSGTDFTFTISSLQPEDFATYYCLQSDNLPLTFGQGTKLEIKRTVAAPEIVLTQSPDFQSVTPKEKVTITCRASQNIGSELHWYQQKPDQSPKLLIKYASHSISGVPSRFSGSGSGTDFTLTINGLEAEDAATYYCHQSDTLPHTFGQGTKVDIKRTVAAPSVFIFPPSDEQLKSGTASVVCLLNNFYPREAKVQWKVDNALQSGNSQESVTEQDSKDSTYSLSSTLTLSKADYEKHKVYACEVTHQGLSSPVTKSFNRGEC
# notes: DVD-Ig, outer AB272, inner AB275, linker set 1; V1 wt hIgG1, V2 kappa; also called DVD1290H; DVD1290L
# B3: DVD1263 (bispecific antibody, human IgG1, kappa)
# heavy: not shown
# light: DIQMTQSPSSLSASVGDRVTITCRASSGIISYIDWFQQKPGKAPKRLIYATFDLASGVPSRFSGSGSGTDYTLTISSLQPEDFATYYCRQVGSYPETFGQGTKLEIKRTVAAPDIQMTQSPSSLSASVGDRVTITCRASGNIHNYLTWYQQTPGKAPKLLIYNAKTLADGVPSRFSGSGSGTDYTFTISSLQPEDIATYYCQHFWSIPYTFGQGTKLQITRTVAAPSVFIFPPSDEQLKSGTASVVCLLNNFYPREAKVQWKVDNALQSGNSQESVTEQDSKDSTYSLSSTLTLSKADYEKHKVYACEVTHQGLSSPVTKSFNRGEC
# B4: DVD1265 (bispecific antibody, human IgG1, kappa)
# heavy: not shown
# light: B3 light
# B5: DVD1272 (bispecific antibody, human IgG1, kappa)
# heavy: not shown
# light: DIQMTQSPSSLSASVGDRVTITCRASGNIHNYLTWYQQTPGKAPKLLIYNAKTLADGVPSRFSGSGSGTDYTFTISSLQPEDIATYYCQHFWSIPYTFGQGTKLQITRTVAAPEIVLTQSPDFQSVTPKEKVTITCRASQDIGSELHWYQQKPDQPPKLLIKYASHSTSGVPSRFSGSGSGTDFTLTINGLEAEDAGTYYCHQTDSLPYTFGPGTKVDIKRTVAAPSVFIFPPSDEQLKSGTASVVCLLNNFYPREAKVQWKVDNALQSGNSQESVTEQDSKDSTYSLSSTLTLSKADYEKHKVYACEVTHQGLSSPVTKSFNRGEC
# B6: DVD1267 (bispecific antibody, human IgG1, kappa)
# heavy: not shown
# light: DIQMTQSPSSLSASVGDRVTITCRASSGIISYIDWFQQKPGKAPKRLIYATFDLASGVPSRFSGSGSGTDYTLTISSLQPEDFATYYCRQVGSYPETFGQGTKLEIKRTVAAPDTQVTQSPSSLSASVGDRVTITCITSTDIDVDMNWYQQKPGKPPKLLISQGNTLRPGVPSRFSSSGSGTDFTFTISSLQPEDFATYYCLQSDNLPLTFGQGTKLEIKRTVAAPSVFIFPPSDEQLKSGTASVVCLLNNFYPREAKVQWKVDNALQSGNSQESVTEQDSKDSTYSLSSTLTLSKADYEKHKVYACEVTHQGLSSPVTKSFNRGEC
# B7: DVD1271 (bispecific antibody, human IgG1, kappa)
# heavy: not shown
# light: B6 light with D114E, Q116T
# B8: DVD1268 (bispecific antibody, human IgG1, kappa)
# heavy: not shown
# light: DTVVTQSPAFLSVTPGEKVTITCITSTDIDVDMNWYQQKPDQPPKLLISQGNTLRPGVPSRFSSSGSGTDFTFTISSLEAEDAATYYCLQSDNLPLTFGQGTKLEIKRTVAAPDIQMTQSPSSLSASVGDRVTITCRASSGIISYIDWFQQKPGKAPKRLIYATFDLASGVPSRFSGSGSGTDYTLTISSLQPEDFATYYCRQVGSYPETFGQGTKLEIKRTVAAPSVFIFPPSDEQLKSGTASVVCLLNNFYPREAKVQWKVDNALQSGNSQESVTEQDSKDSTYSLSSTLTLSKADYEKHKVYACEVTHQGLSSPVTKSFNRGEC
# B9: AB273 (antibody, human IgG1, kappa, V domains shown)
# VH: EVQLVQSGAEVKKPGSSVKVSCKASGYTFTDYEIHWVRQAPGQGLEWMGVNDPESGGTFYNQKFDGRVTLTADESTSTAYMELSSLRSEDTAVYYCTRYSKWDSFDGMDYWGQGTTVTVSS
# VL: DIQMTQSPSSLSASVGDRVTITCRASSGIISYIDWFQQKPGKAPKRLIYATFDLASGVPSRFSGSGSGTDYTLTISSLQPEDFATYYCRQVGSYPETFGQGTKLEIKR
# B10: DVD1262 (bispecific antibody, human IgG1, kappa)
# heavy: not shown
# light: DIQMTQSPSSLSASVGDRVTITCRASGNIHNYLTWYQQTPGKAPKLLIYNAKTLADGVPSRFSGSGSGTDYTFTISSLQPEDIATYYCQHFWSIPYTFGQGTKLQITRTVAAPDIQMTQSPSSLSASVGDRVTITCRASSGIISYIDWFQQKPGKAPKRLIYATFDLASGVPSRFSGSGSGTDYTLTISSLQPEDFATYYCRQVGSYPETFGQGTKLEIKRTVAAPSVFIFPPSDEQLKSGTASVVCLLNNFYPREAKVQWKVDNALQSGNSQESVTEQDSKDSTYSLSSTLTLSKADYEKHKVYACEVTHQGLSSPVTKSFNRGEC
# B11: DVD1264 (bispecific antibody, human IgG1, kappa)
# heavy: not shown
# light: B10 light
# B12: DVD1269 (bispecific antibody, human IgG1, kappa)
# heavy: not shown
# light: DIQMTQSPSSLSASVGDRVTITCRASSGIISYIDWFQQKPGKAPKRLIYATFDLASGVPSRFSGSGSGTDYTLTISSLQPEDFATYYCRQVGSYPETFGQGTKLEIKRTVAAPDTVVTQSPAFLSVTPGEKVTITCITSTDIDVDMNWYQQKPDQPPKLLISQGNTLRPGVPSRFSSSGSGTDFTFTISSLEAEDAATYYCLQSDNLPLTFGQGTKLEIKRTVAAPSVFIFPPSDEQLKSGTASVVCLLNNFYPREAKVQWKVDNALQSGNSQESVTEQDSKDSTYSLSSTLTLSKADYEKHKVYACEVTHQGLSSPVTKSFNRGEC
# B13: DVD1266 (bispecific antibody, human IgG1, kappa)
# heavy: not shown
# light: DTQVTQSPSSLSASVGDRVTITCITSTDIDVDMNWYQQKPGKPPKLLISQGNTLRPGVPSRFSSSGSGTDFTFTISSLQPEDFATYYCLQSDNLPLTFGQGTKLEIKRTVAAPDIQMTQSPSSLSASVGDRVTITCRASSGIISYIDWFQQKPGKAPKRLIYATFDLASGVPSRFSGSGSGTDYTLTISSLQPEDFATYYCRQVGSYPETFGQGTKLEIKRTVAAPSVFIFPPSDEQLKSGTASVVCLLNNFYPREAKVQWKVDNALQSGNSQESVTEQDSKDSTYSLSSTLTLSKADYEKHKVYACEVTHQGLSSPVTKSFNRGEC
# B14: DVD1270 (bispecific antibody, human IgG1, kappa)
# heavy: not shown
# light: B13 light with D1E, Q3T
# Target: T1, Recombinant Human IL-1β (human, UniProt P01584 117-269)
# T1 construct: bought reagent; also called IL-1B
# Assay: Biacore SPR; N-terminal VD
# Outline: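 Rate constants fitted globally to a 1:1 Langmuir model from antigen series of 10−200 nM flowed at 25 μl/min over captured antibody or DVD-Ig (anti-mouse IgG Fcγ capture, ligand at 25 μg/ml).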
Binder,Kd,koff,kon
B1,0.076 nM,0.00046 s⁻¹,6.1e+06 M⁻¹ s⁻¹
B2,0.086 nM,0.00065 s⁻¹,7.5e+06 M⁻¹ s⁻¹

# Target: T2, Recombinant Human IL-17 (human, UniProt Q16552 20-155, limits assumed)
# T2 sequence (looked up): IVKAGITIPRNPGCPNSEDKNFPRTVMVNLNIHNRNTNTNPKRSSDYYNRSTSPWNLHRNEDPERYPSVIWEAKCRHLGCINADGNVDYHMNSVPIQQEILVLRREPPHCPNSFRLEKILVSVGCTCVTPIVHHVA
# Assay: cell-based or functional assay
Binder,N-terminal VD IL-17 Neutralization Assay EC50,C-terminal VD IL-17 Neutralization Assay EC50,IL-17 Neutralization Assay EC50
B3,0.0052 nM,–,–
B4,0.0028 nM,–,–
B5,–,0.346 nM,–
B6,0.0109 nM,–,–
B7,0.0109 nM,–,–
B8,–,0.0034 nM,–
B9,–,–,0.0161 nM
B10,–,0.0162 nM,–
B11,–,0.0084 nM,–
B12,0.0082 nM,–,–
B13,–,0.015 nM,–
B14,–,0.0407 nM,–

# Target: Recombinant Human IL-1β (human, UniProt P01584 117-269)
# Assay: cell-based or functional assay
Binder,C-Terminal VD IL-1β Neutralization Assay EC50,N-Terminal VD IL-1β Neutralization Assay EC50
B3,20 nM,–
B4,0.925 nM,–
B5,–,0.0139 nM
B6,> 40 nM,–
B7,> 30 nM,–
B8,–,0.146 nM
B10,–,0.0164 nM
B11,–,0.12 nM
B12,> 45 nM,–
B13,–,0.327 nM
B14,–,0.265 nM

# Source: US20120034160A1 (AbbVie / Abbott, published 2012)
